From US20220323614A1, “KRAS-SPECIFIC CYCLIC PEPTIDES, COMPOSITIONS, AND METHODS OF USING AND MAKING” (Indi Molecular, Inc., priority 2021, published 2022) come the findings set out here.

The chains are these.
B1: Ac-(Tic)kyf-Lys(Pal) (peptide)
peptide: Ac-[Tic][dK][dY][dF]K(Palmitoyl)
modifications: triazole (positions not given here); also: cyclic via triazole, ring-closing residues not given here
B2: Ac-wk(4-Br-f)f-Lys(Pal) (peptide)
peptide: Ac-[dW][dK][dPhe(4-Br)][dF]K(Palmitoyl)
modifications: triazole (positions not given here); also: cyclic via triazole, ring-closing residues not given here
B3: Ac-wky(Phf)-Lys(Pal) (peptide)
peptide: Ac-[dW][dK][dY][Phf]K(Palmitoyl)
modifications: triazole (positions not given here); reading uncertain; also: cyclic via triazole, ring-closing residues not given here, printed as Ac-wky(Phf)-Lys(Pal)
B4: Ac-wky(4-Br-f)-Lys(Pal) (peptide)
peptide: Ac-[dW][dK][dY][dPhe(4-Br)]K(Palmitoyl)
modifications: triazole (positions not given here); also: cyclic via triazole, ring-closing residues not given here
B5: Ac-wky(4-Cl-f)-Lys(Pal) (peptide)
peptide: Ac-[dW][dK][dY][4‑Cl‑f]K(Palmitoyl)
modifications: triazole (positions not given here); also: cyclic via triazole, ring-closing residues not given here
B6: Ac-wky(2-Nal)-Lys(Pal) (peptide)
peptide: Ac-[dW][dK][dY][2Nal]K(Palmitoyl)
modifications: triazole (positions not given here); also: cyclic via triazole, ring-closing residues not given here
B7: Ac-(Thz)kyf-Lys(Pal) (peptide)
peptide: Ac-[Thz′][dK][dY][dF]K(Palmitoyl)
modifications: triazole (positions not given here); reading uncertain; also: cyclic via triazole, ring-closing residues not given here, printed as Ac-(Thz)kyf-Lys(Pal)
B8: Ac-wky(Cha)-Lys(Pal) (peptide)
peptide: Ac-[dW][dK][dY][Cha]K(Palmitoyl)
modifications: triazole (positions not given here); also: cyclic via triazole, ring-closing residues not given here
B9: Ac-w(Dab)yf-Lys(Pal) (peptide)
peptide: Ac-[dW][Dab][dY][dF]K(Palmitoyl)
modifications: triazole (positions not given here); also: cyclic via triazole, ring-closing residues not given here
B10: Ac-wky(4-F-f)-Lys(Pal) (peptide)
peptide: Ac-[dW][dK][dY][4‑F‑f]K(Palmitoyl)
modifications: triazole (positions not given here); also: cyclic via triazole, ring-closing residues not given here
B11: Ac-wkyf-Az2-Lys(Pal) (peptide)
peptide: Ac-[dW][dK][dY][dF][Az2]K(Palmitoyl)
modifications: triazole (positions not given here); also: cyclic via triazole, other ring-closing residue not given here

Primed or numbered codes have the meaning given here. Where no end group is shown, it is not given here. [ ]: non-standard residue; d: D form. The star is where a group is joined. Az2 = aminoazidobutanoic acid, ring closure; dPhe(4-Br) = N[C@H](Cc1ccc(Br)cc1)C(=O)O; 2Nal = N[C@@H](Cc1ccc2ccccc2c1)C(=O)O; Palmitoyl = CCCCCCCCCCCCCCCC(=O)*; Tic = O=C(O)[C@@H]1Cc2ccccc2CN1; Cha = N[C@@H](CC1CCCCC1)C(=O)O; Dab = NCC[C@H](N)C(=O)O; Thz′ = not defined here; Phf = not defined here

One test has as its target KRAS (G12D) as expressed in G12D-mutant cancer cells (AsPC-1, SW 1990, pancreatic cancer cells) (human) (UniProt P01116). As to the kind of experiment: cell-based or functional assay.
For B1, the pERK G12D (AsPC-1 at 4 µM for 12 hours) was 0.974.
B2 displayed a pERK G12D (AsPC-1 at 4 µM for 12 hours) of 0.776.
B3 gave a pERK G12D (AsPC-1 at 4 µM for 12 hours) of 1.32.
In the case of B4, the pERK G12D (AsPC-1 at 4 µM for 12 hours) turned out to be 0.606.
As to B5, the pERK G12D (AsPC-1 at 4 µM for 12 hours) stood at 0.8.
B6 displayed a pERK G12D (AsPC-1 at 4 µM for 12 hours) of 0.71.
B7 gave a pERK G12D (AsPC-1 at 4 µM for 12 hours) of 1.11.
B8: the pERK G12D (AsPC-1 at 4 µM for 12 hours) was found to be 1.13.
B9 registered a pERK G12D (AsPC-1 at 4 µM for 12 hours) of 0.625.
Molecule B10 gave a pERK G12D (AsPC-1 at 4 µM for 12 hours) of 1.14.
Same read-out and setting: the result for B11 reads 0.794.

In another test the target is KRAS (WT) as expressed in BxPC-3 cells (human) (UniProt P01116). Kind of test: cell-based or functional assay.
For B1, the pERK WT (BxPC-3 at 4 µM for 12 hours) worked out at 0.806.
Consider B2, for which the pERK WT (BxPC-3 at 4 µM for 12 hours) amounted to 0.895.
Take B3: the pERK WT (BxPC-3 at 4 µM for 12 hours) is 0.757.
In turn, B4 came in with a pERK WT (BxPC-3 at 4 µM for 12 hours) of 1.09.
Molecule B5 displayed a pERK WT (BxPC-3 at 4 µM for 12 hours) of 1.05.
Turning to B6, the pERK WT (BxPC-3 at 4 µM for 12 hours) amounted to 0.871.
The molecule B7 displayed a pERK WT (BxPC-3 at 4 µM for 12 hours) of 0.851.
On the same count and under the same terms, then B8, with 1.27.
Turning to B9, the pERK WT (BxPC-3 at 4 µM for 12 hours) is 0.982.
In turn, B10 displayed a pERK WT (BxPC-3 at 4 µM for 12 hours) of 1.71.
In turn, B11 displayed a pERK WT (BxPC-3 at 4 µM for 12 hours) of 1.16.
